Assay results: patent US20190241648A1 (STATEN BIOTECHNOLOGY B V, published 2019)
Ends that are not written are not given here.

Assays:
Test in all cases: peptide microarray
[1] = target: T1, ApoC3 peptide … A39P (human, cyclic constrained)
T1 peptide: PRGWVTDGFSSLK
Summary of the method: (§1)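 Peptide microarrays of ApoC3-derived peptides incubated with antibody samples, then stained with goat anti-human IgG (Fc) DyLight680 (1:5000) and anti-HA DyLight800 (1:2000) control. Read-out by fluorescence scanning at intensities 7/7 (red/green); a secondary-only pre-stain checked background, HA frame peptides served as quality control.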

[2] = target: T2, ApoC3 peptide … L50V (human, not fully specified (bridges); also: cyclic constrained)
T2 peptide: ARGWVTDGFSSVK
Summary of the method: as §1

[3] = target: T3, ApoC3 peptide … R40T (human, not fully specified (bridges); also: cyclic constrained)
T3 peptide: ATGWVTDGFSSLK
Summary of the method: as §1

[4] = target: T4, ApoC3 peptide … R40L (human, not fully specified (bridges); also: cyclic constrained)
T4 peptide: ALGWVTDGFSSLK
Summary of the method: as §1

[5] = target: T5, ApoC3 peptide … K51D (human, thioether (positions not given here); also: cyclic constrained)
T5 peptide: ARGWVTDGFSSLD
Summary of the method: as §1

[6] = target: T6, ApoC3 peptide … L50P (human, not fully specified (bridges); also: cyclic constrained)
T6 peptide: ARGWVTDGFSSPK
Summary of the method: as §1

[7] = target: T7, ApoC3 peptide … V43N (human, not fully specified; cyclic constrained)
T7 peptide: ARGWNTDGFSSLK
Summary of the method: as §1

[8] = target: T8, ApoC3 peptide … S48C (human, not fully specified; cyclic constrained)
T8 peptide: ARGWVTDGFCSLK
Summary of the method: as §1

[9] = target: T9, ApoC3 peptide … G46A (human, also: cyclic constrained)
T9 peptide: ARGWVTDAFSSLK
Summary of the method: as §1

[10] = target: T10, ApoC3 peptide … S49Y (human, not fully specified (bridges); also: cyclic constrained)
T10 peptide: ARGWVTDGFSYLK
Summary of the method: as §1

[11] = target: T11, ApoC3 peptide … V43C (human, not fully specified; cyclic constrained)
T11 peptide: ARGWCTDGFSSLK
Summary of the method: as §1

[12] = target: T12, ApoC3 peptide … F47Q (human, not fully specified (bridges); also: cyclic constrained)
T12 peptide: ARGWVTDGQSSLK
Summary of the method: as §1

[13] = target: T13, ApoC3 peptide … S48D (human, not fully specified; cyclic constrained)
T13 peptide: ARGWVTDGFDSLK
Summary of the method: as §1

[14] = target: T14, ApoC3 peptide … G46F (human, not fully specified (bridges); also: cyclic constrained)
T14 peptide: ARGWVTDFFSSLK
Summary of the method: as §1

[15] = target: T15, ApoC3 peptide … D45Y (human, not fully specified (bridges); also: cyclic constrained)
T15 peptide: ARGWVTYGFSSLK
Summary of the method: as §1

[16] = target: T16, ApoC3 peptide … F47W (human, also: cyclic constrained)
T16 peptide: ARGWVTDGWSSLK
Summary of the method: as §1

[17] = target: T17, ApoC3 peptide … G41R (human, also: cyclic constrained)
T17 peptide: ARRWVTDGFSSLK
Summary of the method: as §1

[18] = target: T18, ApoC3 peptide … A39F (human, cyclic constrained)
T18 peptide: FRGWVTDGFSSLK
Summary of the method: as §1

[19] = target: T19, ApoC3 peptide … S48F (human, not fully specified; cyclic constrained)
T19 peptide: ARGWVTDGFFSLK
Summary of the method: as §1

[20] = target: T20, ApoC3 peptide … G46R (human, thioether (positions not given here); also: cyclic constrained)
T20 peptide: ARGWVTDRFSSLK
Summary of the method: as §1

[21] = target: T21, ApoC3 peptide … D45R (human, cyclic constrained)
T21 peptide: ARGWVTRGFSSLK
Summary of the method: as §1

[22] = target: ApoC3 peptide … S48P (human, cyclic constrained)
Summary of the method: as §1

[23] = target: T22, ApoC3 peptide … G41H (human, also: cyclic constrained)
T22 peptide: ARHWVTDGFSSLK
Summary of the method: as §1

[24] = target: T23, ApoC3 peptide … S49E (human, cyclic constrained)
T23 peptide: ARGWVTDGFSELK
Summary of the method: as §1

[25] = target: T24, ApoC3 peptide … D45I (human, cyclic constrained)
T24 peptide: ARGWVTIGFSSLK
Summary of the method: as §1

[26] = target: T25, ApoC3 peptide … K51C (human, thioether (positions not given here); also: cyclic constrained)
T25 peptide: ARGWVTDGFSSLC
Summary of the method: as §1

[27] = target: T26, ApoC3 peptide … A39M (human, cyclic constrained)
T26 peptide: MRGWVTDGFSSLK
Summary of the method: as §1

[28] = target: T27, ApoC3 peptide … G41D (human, also: cyclic constrained)
T27 peptide: ARDWVTDGFSSLK
Summary of the method: as §1

[29] = target: T28, ApoC3 peptide … W42Q (human, not fully specified (bridges); also: cyclic constrained)
T28 peptide: ARGQVTDGFSSLK
Summary of the method: as §1

[30] = target: T29, ApoC3 peptide … T44I (human, not fully specified (bridges); also: cyclic constrained)
T29 peptide: ARGWVIDGFSSLK
Summary of the method: as §1

[31] = target: T30, ApoC3 peptide … T44S (human, not fully specified (bridges); also: cyclic constrained)
T30 peptide: ARGWVSDGFSSLK
Summary of the method: as §1

% of binding to wild-type peptide [1]: 166%
% of binding to wild-type peptide [2]: 0.74%
% of binding to wild-type peptide [3]: 38.7%
% of binding to wild-type peptide [4]: 54.2%
% of binding to wild-type peptide [5]: 0%
% of binding to wild-type peptide [6]: 0%
% of binding to wild-type peptide [7]: 1.36%
% of binding to wild-type peptide [8]: 56.8%
% of binding to wild-type peptide [9]: 0%
% of binding to wild-type peptide [10]: 0%
% of binding to wild-type peptide [11]: 0.12%
% of binding to wild-type peptide [12]: 0%
% of binding to wild-type peptide [13]: 71.6%
% of binding to wild-type peptide [14]: 0.86%
% of binding to wild-type peptide [15]: 0%
% of binding to wild-type peptide [16]: 1.57%
% of binding to wild-type peptide [17]: 19.4%
% of binding to wild-type peptide [18]: 78.2%
% of binding to wild-type peptide [19]: 9.29%
% of binding to wild-type peptide [20]: 0.3%
% of binding to wild-type peptide [21]: 20.1%
% of binding to wild-type peptide [22]: 0.06%
% of binding to wild-type peptide [23]: 23.1%
% of binding to wild-type peptide [24]: 0%
% of binding to wild-type peptide [25]: 2.04%
% of binding to wild-type peptide [26]: 0%
% of binding to wild-type peptide [27]: 90.7%
% of binding to wild-type peptide [28]: 19.4%
% of binding to wild-type peptide [29]: 93.1%
% of binding to wild-type peptide [30]: 1.86%
% of binding to wild-type peptide [31]: 1.12%
B1: anti-ApoC3 antibody 14C7 (antibody, V domains shown)
VH: QVQVQESGPGLVKPSQTLSLTCTVSGGSITTNSYYWSWIRQPPGKGLEWMGAIDYSGDTYYSPSLKSRTSISRDTSKNQFTLQLTSVTPEDTAVYYCVSRIPTGEYWGQGTQVTVSS
VL: QTVVTQEPSLSVSPGGTVTLTCGLNSGSVTSSNYPDWYQQTPGQAPRLLIYNTNSRHSGVPSRFSGSISGNKAALTITGAQPEDEADYYCALYMGSDSVVFGGGTHLTVL
notes: it was detected with goat anti-human IgG (Fc); also called mAb 14C7; llama antibody 14C7
